# Results published in paper PMC4900533.
# B1: ABCG2: Q596 (protein)
# parent chain: MSSSNVEVFIPVSQGNTNGFPATASNDLKAFTEGAVLSFHNICYRVKLKSGFLPCRKPVEKEILSNINGIMKPGLNAILGPTGGGKSSLLDVLAARKDPSGLSGDVLINGAPRPANFKCNSGYVVQDDVVMGTLTVRENLQFSAALRLATTMTNHEKNERINRVIQELGLDKVADSKVGTQFIRGVSGGERKRTSIGMELITDPSILFLDEPTTGLDSSTANAVLLLLKRMSKQGRTIIFSIHQPRYSIFKLFDSLTLLASGRLMFHGPAQEALGYFESAGYHCEAYNNPADFFLDIINGDSTAVALNREEDFKATEIIEPSKQDKPLIEKLAEIYVNSSFYKETKAELHQLSGGEKKKKITVFKEISYTTSFCHQLRWVSKRSFKNLLGNPQASIAQIIVTVVLGLVIGAIYFGLKNDSTGIQNRAGVLFFLTTNQCFSSVSAVELFVVEKKLFIHEYISGYYRVSSYFLGKLLSDLLPMRMLPSIIFTCIVYFMLGLKPKADAFFVMMFTLMMVAYSASSMALAIAAGQSVVSVATLLMTICFVFMMIFSGLLVNLTTIASWLSWLQYFSIPRYGFTALQHNEFLGQNFCPGLNATGNNPCNYATCTGEEYLVKQGIDLSPWGLWKNHVALACMIVIFLTIAYLKLLFLKKYS
# What was measured:
# [1] = confocal microscopy, apical marker gp135, MDCKII; details: glycan lost; control: wild type
# [2] = immunoblot of PNGase F-treated MDCKII lysates, densitometry; details: glycan lost; control: wild type
protein,measurement,setting,value
B1,localisation_or_trafficking,[1],no change
same,expression_or_secretion,[2],decreases
